What was measured:
Jak2 = Jak2 (UniProt O60674); experiment: phosphorylation enrichment, bacterial display (enrichment ratio); higher = better substrate or ligand; peptides without Tyr show the background
Fyn = Fyn (UniProt P06241); experiment: as above
Fes = Fes (UniProt P07332); experiment: as above
FGFR1 = FGFR1 (UniProt P11362); experiment: as above
EPHB2 = EPHB2 (UniProt P29323); experiment: as above
EPHB1 = EPHB1 (UniProt P54762); experiment: as above
FGFR3 = FGFR3 (UniProt P22607); experiment: as above
Fer (mouse) = experiment: as above
c-Abl (mouse) = experiment: as above
Hck = Hck (UniProt P08631); experiment: as above
Chain of Hck (P08631 whole entry, looked up): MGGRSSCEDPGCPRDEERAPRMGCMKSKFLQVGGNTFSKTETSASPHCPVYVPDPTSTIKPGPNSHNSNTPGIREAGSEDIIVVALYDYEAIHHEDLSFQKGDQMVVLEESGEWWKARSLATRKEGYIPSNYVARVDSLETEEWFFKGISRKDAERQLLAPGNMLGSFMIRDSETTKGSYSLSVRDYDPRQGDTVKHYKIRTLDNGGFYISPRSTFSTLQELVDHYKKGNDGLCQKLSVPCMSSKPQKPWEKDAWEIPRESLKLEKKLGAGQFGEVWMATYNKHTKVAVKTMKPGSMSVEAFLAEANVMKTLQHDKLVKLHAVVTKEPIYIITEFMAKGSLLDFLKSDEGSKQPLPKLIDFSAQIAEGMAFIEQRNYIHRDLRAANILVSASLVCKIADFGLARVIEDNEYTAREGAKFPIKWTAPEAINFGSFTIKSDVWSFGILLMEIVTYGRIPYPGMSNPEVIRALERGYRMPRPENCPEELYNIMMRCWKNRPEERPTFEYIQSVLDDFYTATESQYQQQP

c-Src = experiment: as above
MERTK = MERTK (UniProt Q12866); experiment: as above
Chain of MERTK (Q12866 whole entry, looked up): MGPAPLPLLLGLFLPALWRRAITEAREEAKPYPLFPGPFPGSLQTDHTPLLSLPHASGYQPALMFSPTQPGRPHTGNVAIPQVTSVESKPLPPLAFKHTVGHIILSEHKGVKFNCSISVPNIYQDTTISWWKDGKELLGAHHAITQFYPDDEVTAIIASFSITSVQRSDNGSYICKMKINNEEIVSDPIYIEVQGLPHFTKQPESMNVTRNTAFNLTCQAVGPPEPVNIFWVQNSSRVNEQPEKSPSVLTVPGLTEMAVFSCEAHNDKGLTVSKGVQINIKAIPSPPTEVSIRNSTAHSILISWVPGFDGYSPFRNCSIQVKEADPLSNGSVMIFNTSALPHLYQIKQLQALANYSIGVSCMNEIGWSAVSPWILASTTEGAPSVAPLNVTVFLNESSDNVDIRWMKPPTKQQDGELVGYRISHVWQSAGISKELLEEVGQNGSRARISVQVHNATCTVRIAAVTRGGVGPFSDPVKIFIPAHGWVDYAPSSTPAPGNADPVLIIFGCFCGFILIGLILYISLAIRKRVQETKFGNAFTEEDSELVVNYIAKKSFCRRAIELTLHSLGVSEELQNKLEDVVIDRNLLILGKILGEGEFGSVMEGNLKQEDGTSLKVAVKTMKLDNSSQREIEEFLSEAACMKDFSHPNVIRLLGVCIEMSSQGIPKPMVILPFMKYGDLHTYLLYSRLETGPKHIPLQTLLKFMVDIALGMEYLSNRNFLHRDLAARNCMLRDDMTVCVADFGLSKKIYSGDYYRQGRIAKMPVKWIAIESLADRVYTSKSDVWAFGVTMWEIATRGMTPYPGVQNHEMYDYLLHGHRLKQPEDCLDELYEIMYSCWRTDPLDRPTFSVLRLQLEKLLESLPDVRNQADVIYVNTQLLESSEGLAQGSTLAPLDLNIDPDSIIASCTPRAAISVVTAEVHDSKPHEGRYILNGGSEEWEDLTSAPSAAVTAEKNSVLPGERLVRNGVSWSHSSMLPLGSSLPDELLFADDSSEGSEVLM

AncSZ = experiment: as above
c-Src SH2 = experiment: SH2 binding enrichment of the phosphorylated peptide, bacterial display (enrichment ratio); higher = better substrate or ligand; peptides without Tyr show the background
SHP2-C SH2 = experiment: as above
Grb2 SH2 = Grb2 SH2 (UniProt P62993); experiment: as above
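Wherever SH2 binding enrichment of the phosphorylated peptide, bacterial display is given: peptide library displayed on the E. coli surface as eCPX fusions, selected cells deep-sequenced, score is each peptide's frequency after selection divided by its frequency in the input.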
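Wherever phosphorylation enrichment, bacterial display is given: 11-residue human phosphosite peptides and single-mutation variants displayed on the E. coli surface, counted by deep sequencing, each peptide's frequency after selection divided by its frequency in the unselected input library; frequency after pTyr selection over input frequency; kinase dosed for 20-30% of maximal phosphorylation in three min.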

Chain of EPHB2 (P29323 whole entry, looked up): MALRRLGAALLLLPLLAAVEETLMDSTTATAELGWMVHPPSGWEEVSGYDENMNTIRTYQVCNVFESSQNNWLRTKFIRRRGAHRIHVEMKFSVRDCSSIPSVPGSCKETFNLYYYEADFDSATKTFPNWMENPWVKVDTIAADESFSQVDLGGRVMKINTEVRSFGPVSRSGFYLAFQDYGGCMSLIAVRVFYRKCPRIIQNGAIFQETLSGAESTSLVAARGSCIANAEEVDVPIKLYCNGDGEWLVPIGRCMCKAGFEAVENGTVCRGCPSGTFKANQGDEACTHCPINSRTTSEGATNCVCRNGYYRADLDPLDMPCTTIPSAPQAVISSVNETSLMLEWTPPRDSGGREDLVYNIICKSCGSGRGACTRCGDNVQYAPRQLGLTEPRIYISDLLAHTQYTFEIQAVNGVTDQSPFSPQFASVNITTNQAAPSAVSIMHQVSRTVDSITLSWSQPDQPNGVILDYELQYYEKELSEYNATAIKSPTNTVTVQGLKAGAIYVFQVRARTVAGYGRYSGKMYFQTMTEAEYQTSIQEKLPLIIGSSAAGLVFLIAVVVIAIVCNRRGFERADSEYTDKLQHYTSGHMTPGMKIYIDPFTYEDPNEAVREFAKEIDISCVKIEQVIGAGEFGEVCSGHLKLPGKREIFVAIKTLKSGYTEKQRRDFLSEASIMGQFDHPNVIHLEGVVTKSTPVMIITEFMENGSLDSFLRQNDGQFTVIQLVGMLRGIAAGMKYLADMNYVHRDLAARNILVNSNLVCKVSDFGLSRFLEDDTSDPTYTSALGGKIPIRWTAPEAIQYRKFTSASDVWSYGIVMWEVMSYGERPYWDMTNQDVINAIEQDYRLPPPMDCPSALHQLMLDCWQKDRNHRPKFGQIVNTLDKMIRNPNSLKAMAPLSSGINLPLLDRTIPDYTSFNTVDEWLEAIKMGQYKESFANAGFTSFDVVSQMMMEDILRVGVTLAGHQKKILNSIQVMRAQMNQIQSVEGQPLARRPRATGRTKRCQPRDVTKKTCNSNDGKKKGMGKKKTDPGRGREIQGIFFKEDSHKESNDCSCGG
Chain of Fes (P07332 whole entry, looked up): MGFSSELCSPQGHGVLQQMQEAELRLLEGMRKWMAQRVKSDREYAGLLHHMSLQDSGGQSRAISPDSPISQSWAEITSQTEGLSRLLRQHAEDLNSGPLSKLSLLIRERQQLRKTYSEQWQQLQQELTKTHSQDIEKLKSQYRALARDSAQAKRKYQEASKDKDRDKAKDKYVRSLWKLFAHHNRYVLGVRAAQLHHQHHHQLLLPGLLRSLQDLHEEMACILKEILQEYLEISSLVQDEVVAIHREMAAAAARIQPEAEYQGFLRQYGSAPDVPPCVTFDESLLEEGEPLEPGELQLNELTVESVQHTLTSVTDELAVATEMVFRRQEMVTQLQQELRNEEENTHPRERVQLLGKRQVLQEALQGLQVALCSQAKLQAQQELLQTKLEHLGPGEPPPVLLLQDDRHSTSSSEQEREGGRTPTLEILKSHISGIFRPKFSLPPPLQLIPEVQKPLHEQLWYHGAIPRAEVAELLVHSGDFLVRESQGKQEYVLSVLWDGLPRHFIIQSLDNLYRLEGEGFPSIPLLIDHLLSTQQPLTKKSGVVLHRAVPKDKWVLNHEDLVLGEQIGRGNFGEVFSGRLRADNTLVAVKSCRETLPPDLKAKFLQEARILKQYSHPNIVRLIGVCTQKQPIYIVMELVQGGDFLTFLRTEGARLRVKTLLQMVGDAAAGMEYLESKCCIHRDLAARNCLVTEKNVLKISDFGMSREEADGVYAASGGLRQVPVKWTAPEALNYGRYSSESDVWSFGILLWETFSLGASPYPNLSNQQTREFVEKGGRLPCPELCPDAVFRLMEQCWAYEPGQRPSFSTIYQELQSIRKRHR
Chain of Jak2 (O60674 whole entry, looked up): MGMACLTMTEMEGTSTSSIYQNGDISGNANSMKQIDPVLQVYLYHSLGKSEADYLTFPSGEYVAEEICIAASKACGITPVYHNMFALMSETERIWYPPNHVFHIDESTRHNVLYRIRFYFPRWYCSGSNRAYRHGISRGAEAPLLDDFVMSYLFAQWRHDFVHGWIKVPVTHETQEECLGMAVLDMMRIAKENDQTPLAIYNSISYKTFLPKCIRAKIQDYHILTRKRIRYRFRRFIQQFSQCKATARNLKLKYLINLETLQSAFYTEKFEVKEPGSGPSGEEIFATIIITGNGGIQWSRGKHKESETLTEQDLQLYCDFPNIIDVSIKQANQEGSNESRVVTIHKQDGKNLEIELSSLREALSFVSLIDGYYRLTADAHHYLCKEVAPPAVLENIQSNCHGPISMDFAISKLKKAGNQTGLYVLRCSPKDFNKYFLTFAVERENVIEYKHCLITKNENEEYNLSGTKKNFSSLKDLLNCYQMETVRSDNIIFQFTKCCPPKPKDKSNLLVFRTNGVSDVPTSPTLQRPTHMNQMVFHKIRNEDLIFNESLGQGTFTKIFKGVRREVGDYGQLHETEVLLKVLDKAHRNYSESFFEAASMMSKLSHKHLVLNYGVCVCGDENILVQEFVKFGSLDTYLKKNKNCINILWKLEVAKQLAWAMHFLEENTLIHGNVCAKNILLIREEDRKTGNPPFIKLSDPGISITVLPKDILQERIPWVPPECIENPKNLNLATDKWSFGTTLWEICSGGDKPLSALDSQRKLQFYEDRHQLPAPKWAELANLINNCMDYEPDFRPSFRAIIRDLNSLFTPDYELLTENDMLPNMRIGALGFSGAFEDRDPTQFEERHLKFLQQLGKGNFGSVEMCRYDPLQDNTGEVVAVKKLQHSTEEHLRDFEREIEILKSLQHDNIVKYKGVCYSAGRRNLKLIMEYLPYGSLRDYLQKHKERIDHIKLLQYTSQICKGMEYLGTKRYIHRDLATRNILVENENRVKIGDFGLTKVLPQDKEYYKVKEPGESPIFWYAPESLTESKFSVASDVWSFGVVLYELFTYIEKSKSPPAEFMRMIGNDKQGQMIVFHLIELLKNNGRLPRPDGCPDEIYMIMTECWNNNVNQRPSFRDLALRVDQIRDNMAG
Chain of Fyn (P06241 whole entry, looked up): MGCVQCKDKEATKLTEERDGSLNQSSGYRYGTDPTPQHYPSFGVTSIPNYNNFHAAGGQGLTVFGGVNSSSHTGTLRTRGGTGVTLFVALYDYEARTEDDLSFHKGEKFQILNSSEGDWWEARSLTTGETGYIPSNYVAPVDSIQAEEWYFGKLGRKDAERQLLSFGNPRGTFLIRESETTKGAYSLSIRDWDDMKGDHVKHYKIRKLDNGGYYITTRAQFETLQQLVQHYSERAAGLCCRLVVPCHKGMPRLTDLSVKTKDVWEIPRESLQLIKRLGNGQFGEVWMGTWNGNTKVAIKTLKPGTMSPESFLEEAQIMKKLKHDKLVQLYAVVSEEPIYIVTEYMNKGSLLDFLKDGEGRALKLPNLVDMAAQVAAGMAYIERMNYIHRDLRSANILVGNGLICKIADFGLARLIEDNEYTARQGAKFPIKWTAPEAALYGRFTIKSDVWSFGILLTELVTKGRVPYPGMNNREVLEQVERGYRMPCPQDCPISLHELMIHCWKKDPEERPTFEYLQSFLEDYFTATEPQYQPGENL

Sequence | SH2 binding enrichment (c-Src SH2) | SH2 binding enrichment (SHP2-C SH2) | SH2 binding enrichment (Grb2 SH2) | phosphorylation enrichment (Jak2) | phosphorylation enrichment (Fyn) | phosphorylation enrichment (Fes) | phosphorylation enrichment (FGFR1) | phosphorylation enrichment (EPHB2) | phosphorylation enrichment (EPHB1) | phosphorylation enrichment (FGFR3) | phosphorylation enrichment (Fer (mouse)) | phosphorylation enrichment (c-Abl (mouse)) | phosphorylation enrichment (Hck) | phosphorylation enrichment (c-Src) | phosphorylation enrichment (MERTK) | phosphorylation enrichment (AncSZ)
LGQRIYQYIQS [DYRK1B_Y271] | 4.11 | 1.2 | 1.02 | 1.3 | 4.18 | 2.86 | 5.29 | 12.5 | 20.9 | 3.3 | 18.1 | 2.74 | 8.12 | 5.08 | 13.5 | 1.54
LHRHAYPEQQQ [DPPA2_Y127_R131Q] | 0.906 | 0.839 | 1.02 | 0.645 | 0.824 | 0.901 | 1.07 | 0.811 | 0.837 | 0.828 | 0.743 | 0.716 | 0.474 | 0.559 | 0.401 | 0.726
LHVKMYNFLRS [ADGRG7_Y760_R756H] | 0.827 | 1.07 | 1.28 | 1.69 | 0.615 | 1.89 | 0.714 | 0.778 | 0.831 | 0.94 | 1.11 | 2.26 | 0.625 | 0.711 | 0.85 | 1.97
LIDGFYRLTAD [JAK2_Y373_YF] | 0.503 | 0.759 | 0.918 | 1.29 | 0.698 | 1.51 | 0.754 | 0.883 | 0.747 | 0.991 | 0.523 | 0.816 | 0.807 | 0.86 | 0.741 | 1.29
LKALKYKSMKI [ITGA11_Y1098] | 0.783 | 0.876 | 1.34 | 0.735 | 0.641 | 0.701 | 0.225 | 0.31 | 0.299 | 0.619 | 0.452 | 0.568 | 0.424 | 0.322 | 0.336 | 0.374
LKVDVYGRSHK [FUT3_Y222] | 0.561 | 0.621 | 0.715 | 0.588 | 0.324 | 0.869 | 0.782 | 0.778 | 0.553 | 1.1 | 0.441 | 0.629 | 0.625 | 0.379 | 0.37 | 1
LLFRVYGLESL [INSR_Y94] | 0.588 | 0.734 | 0.718 | 1.77 | 0.752 | 1.76 | 0.542 | 0.828 | 0.96 | 1.4 | 0.757 | 1.15 | 0.465 | 0.565 | 0.792 | 1.88

Second part, led by results:

SH2 binding enrichment (c-Src SH2) | SH2 binding enrichment (SHP2-C SH2) | SH2 binding enrichment (Grb2 SH2) | Sequence | phosphorylation enrichment (Jak2) | phosphorylation enrichment (Fyn) | phosphorylation enrichment (Fes) | phosphorylation enrichment (FGFR1) | phosphorylation enrichment (EPHB2) | phosphorylation enrichment (EPHB1) | phosphorylation enrichment (FGFR3) | phosphorylation enrichment (Fer (mouse)) | phosphorylation enrichment (c-Abl (mouse)) | phosphorylation enrichment (Hck) | phosphorylation enrichment (c-Src) | phosphorylation enrichment (MERTK) | phosphorylation enrichment (AncSZ)
0.517 | 2.26 | 0.858 | LHAALYKRKLL [TTLL5_Y542_E543K] | 1.17 | 0.464 | 0.702 | 0.483 | 0.527 | 0.454 | 0.518 | 0.41 | 1.24 | 0.536 | 0.551 | 0.502 | 0.771
0.525 | 0.548 | 0.868 | LINLKYSVEEE [PCDH19_Y27] | 1.88 | 0.579 | 2.46 | 0.525 | 0.755 | 0.755 | 0.895 | 0.806 | 1.12 | 0.447 | 1.19 | 0.583 | 1.36
0.589 | 1.12 | 0.727 | LINSVYGCSRQ [TMPRSS6_Y290_T287N] | 1.82 | 3.32 | 1.57 | 1.02 | 1 | 1.01 | 0.974 | 0.863 | 1.37 | 4.43 | 5.15 | 1.21 | 1.43
0.564 | 1.03 | 1.32 | LKGIRYLTSGL [PIGA_Y82_R77L] | 0.959 | 1.05 | 1.09 | 0.691 | 0.913 | 1.12 | 0.452 | 1.01 | 1.28 | 0.937 | 0.762 | 0.644 | 1.03
0.74 | 0.501 | 0.99 | LKLWDYSRGRC [WDR5B_Y239] | 0.724 | 0.66 | 1.19 | 0.597 | 1.01 | 0.73 | 0.694 | 0.796 | 0.643 | 0.451 | 0.39 | 0.736 | 0.966
0.982 | 1.24 | 0.829 | LKSEMYQKLFK [RGS13_Y146_L150F] | 1.77 | 0.493 | 0.993 | 0.715 | 0.614 | 0.5 | 0.923 | 0.596 | 0.769 | 0.756 | 0.626 | 0.7 | 1.02
0.896 | 1.1 | 0.899 | LLKKIYLMLDN [STAT1_Y203_M202I] | 2.05 | 0.562 | 2.38 | 1.08 | 0.817 | 1.15 | 1.31 | 0.67 | 1.85 | 0.85 | 0.977 | 0.822 | 1.85
1.11 | 1.59 | 1.64 | LLNAIYLSAKR [SERPING1_Y294_W299R] | 1.65 | 0.86 | 1.43 | 0.617 | 0.846 | 0.659 | 0.963 | 0.85 | 1.61 | 1.36 | 1.09 | 0.947 | 1.58
1.33 | 1.99 | 1.66 | LLVVLCKYRCY [PSEN1_Y154_Y154C] | 0.786 | 0.377 | 1.01 | 0.414 | 0.466 | 0.532 | 0.536 | 0.353 | 0.606 | 0.382 | 0.369 | 0.315 | 0.873
